Reference: the Human Domainome abundance scans (Beltran et al. 2025)

B1: POU domain, class 3, transcription factor 1, residues 247 to 324; numbered along this chain, Q03052 (parent)
chain: EDAPSSDDLEQFAKQFKQRRIKLGFTQADVGLALGTLYGNVFSQTTICRFEALQLSFKNMCKLKPLLNKWLEETDSSS

Variants of: B1
Assay: abundance fitness (aPCA) (normalised: wild type 0, dead -1); higher = more abundant; growth selection in yeast, the domain comes from the species named
Conditions: Homo sapiens

Abundance fitness: each site, then its substitutions
G39: M -1.04, S -0.258, P -0.124, D -0.192, A -0.365, V -0.846, L -0.751, I -0.488, R -0.198, W -0.421, T -0.196, N -0.213, E -0.344, C -0.523, H 0.144
L32: C 0.095, P -0.898, E -0.017, I 0.163, V -0.183, D 0.182, M -0.039, S 0.152, R 0.122, Q 0.148, Y -0.148, G -0.372, H 0.033, N -0.371, F 0.186, K 0.086, W -0.185
A28: R 0.069, I -0.608, Y -0.213, T -0.037, C -0.239, L -0.405, V -0.495, H -0.24, E -0.008, G -0.083, W -0.371, K -0.111, S -0.237, Q -0.225, N -0.285, P -0.758, D -0.317, M -0.149
Q44: W -0.55, R -0.067, P 0.132, C -0.515, E 0.266, A 0.119, K 0.041, H -0.046, M -0.262, T 0.118, Y -0.266, F -0.323, G 0.03, L -0.502, I -0.472, N 0.01, S 0.025, D 0.195, V -0.209
D29: F -0.835, R -0.316, V -0.679, M -0.654, N -0.729, Q 0.184, L -0.547, T -0.512, C -0.592, K -0.057, P -0.614, W -0.631, S -0.28, A -0.134, G -0.241, H -0.213
G31: N -0.437, R -0.46, S 0.04, Y -0.957, E -0.18, H -0.228, Q -0.337, T -0.085, L -0.509, W -0.444, A 0.161, D -0.417, K -0.702, P -0.983, V -0.262, M -0.494
S43: V -0.835, Y -0.389, D 0.17, L -0.872, M -0.63, F -1.04, A -0.378, G -0.297, R -0.329, W -0.371, N 0.045, T -0.04, K -0.234, H -0.108, P -0.007, C -0.485
F42: R -0.493, D -0.295, E -0.114, P -0.265, H -0.226, I 0.231, L -0.043, M 0.014, N -0.597, V 0.064, Y 0.048, K -0.656, Q 0.001, T -0.071, S -0.365, G -0.594, W -0.191
T26: N -0.436, M -0.559, V -0.724, S -0.093, K -0.746, P -0.919, W -0.998, Q -0.192, L -0.699
V41: N 0.116, S 0.05, R -0.035, D -0.141, C -0.142, M 0.03, L -0.127, K 0.141, A -0.018, Q 0.093, I 0.025, H 0.253, Y -0.079, P 0.087, G 0.016, E 0.058, F -0.427
Q27: E 0.03, I 0.045, F -0.325, G -0.595, C 0.069, K -0.257, D -0.836, W -0.209, L -0.356, M -0.288, V -0.171, H 0.217, R -0.49, P -0.053, S -0.369, A -0.051, T -0.062
Y38: N 0.019, V -0.031, E -0.332, C -0.029, F -0.13, P -0.44, A -0.153, K -0.153, D -0.058, Q -0.173, L -0.418, H -0.014, I 0.108, S -0.026, R -0.383, M -0.486, W -0.43
V30: I -0.055, M -0.65, L -0.175, K -0.425, T -0.807, A -0.411, W -0.386, N -0.281, H -0.303, Q -0.759, C -0.319, P -0.787, G -0.957, E -0.601, R -0.975, F -0.485
T46: H -0.261, K -0.304, L -0.279, N -0.373, P -0.533, M 0.069, C -0.64, D 0.118, I -0.121, A -0.125
T45: S -0.017, W -0.443, V -0.148, H -0.055, D 0.254, I -0.557, L -0.102, F -0.016, R 0.016, P -0.434, A -0.023, M -0.205, C -0.346, Y -0.304, Q 0.167, E 0.185, N 0.112, G -0.076
T36: V -0.36, M 0.02, R 0.089, I -0.178, D 0.112, Y -0.416, W -0.532, A -0.162, P -0.262, Q 0.032, K 0.111, S 0.134, E 0.158, N -0.025, F -0.659, G -0.166, H -0.299, L -0.154, C -0.18
L37: I 0.11, D -0.35, C 0.206, W -0.251, S -0.261, N -0.333, Q -0.054, G -0.275, E -0.062, F -0.06, M 0.097, V -0.198, H 0.133, Y 0.175, K 0.137
A33: W -0.195, F -0.105, L 0.003, K -0.067, Y -0.221, I -0.317, V -0.255, D -0.504, N -0.075, P -0.645, T -0.405, Q 0.096, E 0.047, H -0.332, C -0.474
G35: P -1.13, W -0.439, D -0.571, Q -0.125, A -0.097, F -0.211, T 0.236, K -0.125, H -0.37, V -0.641, Y -0.313, S 0.064, C -0.299, R 0.005, M -0.4
N40: Y -0.282, S 0.004, D 0.062, K 0.263, P -0.276, I -0.117, W -0.244, M -0.126, G 0.008, H -0.179, E 0.031, L -0.237, F -0.167, R 0.07, V -0.131, Q 0.103, T 0.031, A -0.179
L34: S -0.859, F -0.408, W -0.914, I -0.536, A -0.42, M -0.158, C -0.397, D -0.415, V -0.464, K -0.698, G -0.866, T -0.311, R -0.844, P -0.772
